# PMC6555819, “Comprehensive study of nuclear receptor DNA binding provides a revised framework for understanding receptor specificity”
# Key:
# THRa:RXRa = THRa:RXRa (Homo sapiens, UniProt P10827;P19793 full;full); assay: no ligand; PBM; 90 nM : 90 nM RXRa; PBS pH 7.4, 2% milk, 0.02% Triton X-100, 1 mM DTT, BSA, 0.4 mg/ml salmon testes DNA; conditions: tags: His kept;His cleaved; copies: 1;1; label: surface-attached array probe
# PPARg:RXRa = PPARg:RXRa (Homo sapiens, UniProt P37231;P19793 full;full); assay: no ligand; PBM; 180 nM : 90 nM RXRa; PBS pH 7.4, 2% milk, 0.02% Triton X-100, 1 mM DTT, BSA, 0.4 mg/ml salmon testes DNA; conditions: tags: His kept;His cleaved; copies: 1;1; label: surface-attached array probe
# RARa:RXRa = RARa:RXRa (Homo sapiens, UniProt P10276;P19793 full;full); assay: no ligand; PBM; 270 nM : 90 nM RXRa; PBS pH 7.4, 2% milk, 0.02% Triton X-100, 1 mM DTT, BSA, 0.4 mg/ml salmon testes DNA; conditions: tags: His kept;His cleaved; copies: 1;1; label: surface-attached array probe
# Outline: (§1)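 Random background probes are the reference for binding z-scores. These scores derive from regression-normalized fluorescence on custom Agilent 4×180K protein-binding microarrays incubated 1 h with ligand-free nuclear receptor dimers. Binding was detected with antibodies against each partner (one per run).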
# PXR:RXRa = PXR:RXRa (Homo sapiens, UniProt O75469;P19793 full;full); assay: as above; conditions: tags: His kept;His cleaved; copies: 1;1; label: surface-attached array probe
# Outline: as §1
# RARb:RXRa = RARb:RXRa (Homo sapiens, UniProt P10826;P19793 full;full); assay: as above; conditions: tags: His kept;His cleaved; copies: 1;1; label: surface-attached array probe
# Outline: as §1
# VDR:RXRa = VDR:RXRa (Homo sapiens, UniProt P11473;P19793 full;full); assay: as above; conditions: tags: His kept;His cleaved; copies: 1;1; label: surface-attached array probe
# Outline: as §1
# RXRa = RXRa (Homo sapiens, UniProt P19793); assay: no ligand; PBM; 180 nM; PBS pH 7.4, 2% milk, 0.02% Triton X-100, 1 mM DTT, BSA, 0.4 mg/ml salmon testes DNA; conditions: tags: His cleaved; chain copies: 2; label: surface-attached array probe
# LXRa:RXRa = LXRa:RXRa (Homo sapiens, UniProt Q13133;P19793 full;full); assay: no ligand; PBM; 270 nM : 90 nM RXRa; PBS pH 7.4, 2% milk, 0.02% Triton X-100, 1 mM DTT, BSA, 0.4 mg/ml salmon testes DNA; conditions: tags: His kept;His cleaved; copies: 1;1; label: surface-attached array probe
# Outline: as §1
# LXRb:RXRa = LXRb:RXRa (Homo sapiens, UniProt P55055;P19793 full;full); assay: as above; conditions: tags: His kept;His cleaved; copies: 1;1; label: surface-attached array probe
# Outline: as §1
# FXR:RXRa = FXR:RXRa (Homo sapiens, UniProt Q96RI1;P19793 full;full); assay: as above; conditions: tags: His kept;His cleaved; copies: 1;1; label: surface-attached array probe
# Outline: as §1
# PPARa:RXRa = PPARa:RXRa (Homo sapiens, UniProt Q07869;P19793 full;full); assay: as above; conditions: tags: GST kept;His cleaved; copies: 1;1; label: surface-attached array probe
# Outline: as §1
# RARg:RXRa = RARg:RXRa (Homo sapiens, UniProt P13631;P19793 full;full); assay: as above; conditions: tags: His kept;His cleaved; copies: 1;1; label: surface-attached array probe
# Outline: as §1
# Sequence of RARa:RXRa (P10276 whole entry, chain 1 of 2): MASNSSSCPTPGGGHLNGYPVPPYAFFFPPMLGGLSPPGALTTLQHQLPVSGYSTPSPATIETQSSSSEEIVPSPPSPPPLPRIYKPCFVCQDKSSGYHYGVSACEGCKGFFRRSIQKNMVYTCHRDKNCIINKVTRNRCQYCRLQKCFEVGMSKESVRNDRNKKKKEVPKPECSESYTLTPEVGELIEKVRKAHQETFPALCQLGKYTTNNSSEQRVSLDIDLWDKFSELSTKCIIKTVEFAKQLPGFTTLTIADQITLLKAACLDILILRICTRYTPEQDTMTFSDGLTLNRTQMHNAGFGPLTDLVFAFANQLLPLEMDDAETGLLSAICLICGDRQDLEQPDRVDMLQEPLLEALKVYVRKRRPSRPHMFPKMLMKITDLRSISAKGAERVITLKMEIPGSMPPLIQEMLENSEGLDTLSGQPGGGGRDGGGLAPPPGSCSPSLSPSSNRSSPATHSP
# Sequence of RARa:RXRa (P19793 whole entry, chain 2 of 2): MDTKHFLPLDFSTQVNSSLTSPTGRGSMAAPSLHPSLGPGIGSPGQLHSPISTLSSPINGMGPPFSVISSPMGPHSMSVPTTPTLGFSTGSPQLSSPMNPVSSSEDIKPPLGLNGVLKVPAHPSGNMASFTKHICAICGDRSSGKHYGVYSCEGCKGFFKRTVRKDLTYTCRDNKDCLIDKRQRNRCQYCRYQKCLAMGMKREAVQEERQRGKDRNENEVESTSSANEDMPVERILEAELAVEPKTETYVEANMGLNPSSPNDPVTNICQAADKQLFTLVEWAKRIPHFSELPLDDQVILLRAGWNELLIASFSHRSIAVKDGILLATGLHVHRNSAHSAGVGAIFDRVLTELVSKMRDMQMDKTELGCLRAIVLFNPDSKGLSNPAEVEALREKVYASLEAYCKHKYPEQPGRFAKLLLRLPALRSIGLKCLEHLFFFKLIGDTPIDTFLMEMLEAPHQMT
# Sequence of RXRa (P19793 whole entry): as the sequence (P19793 whole entry, chain 2 of 2) above
# Sequence of FXR:RXRa (Q96RI1 whole entry, chain 1 of 2): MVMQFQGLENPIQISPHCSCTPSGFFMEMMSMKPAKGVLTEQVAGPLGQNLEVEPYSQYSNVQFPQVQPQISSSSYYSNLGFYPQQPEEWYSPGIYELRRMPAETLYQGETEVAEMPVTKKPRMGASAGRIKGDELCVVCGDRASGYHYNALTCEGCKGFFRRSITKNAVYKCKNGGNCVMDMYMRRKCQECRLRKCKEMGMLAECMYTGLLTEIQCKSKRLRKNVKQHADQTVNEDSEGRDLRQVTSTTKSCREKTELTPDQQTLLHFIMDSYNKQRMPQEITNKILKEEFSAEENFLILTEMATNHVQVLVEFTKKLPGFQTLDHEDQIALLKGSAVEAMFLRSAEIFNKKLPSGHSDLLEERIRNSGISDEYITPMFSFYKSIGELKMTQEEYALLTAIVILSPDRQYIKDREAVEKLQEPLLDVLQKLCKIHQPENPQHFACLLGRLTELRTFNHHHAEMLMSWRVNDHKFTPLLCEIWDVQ
# Sequence of FXR:RXRa (P19793 whole entry, chain 2 of 2): as the sequence (P19793 whole entry, chain 2 of 2) above
# Sequence of LXRa:RXRa (Q13133 whole entry, chain 1 of 2): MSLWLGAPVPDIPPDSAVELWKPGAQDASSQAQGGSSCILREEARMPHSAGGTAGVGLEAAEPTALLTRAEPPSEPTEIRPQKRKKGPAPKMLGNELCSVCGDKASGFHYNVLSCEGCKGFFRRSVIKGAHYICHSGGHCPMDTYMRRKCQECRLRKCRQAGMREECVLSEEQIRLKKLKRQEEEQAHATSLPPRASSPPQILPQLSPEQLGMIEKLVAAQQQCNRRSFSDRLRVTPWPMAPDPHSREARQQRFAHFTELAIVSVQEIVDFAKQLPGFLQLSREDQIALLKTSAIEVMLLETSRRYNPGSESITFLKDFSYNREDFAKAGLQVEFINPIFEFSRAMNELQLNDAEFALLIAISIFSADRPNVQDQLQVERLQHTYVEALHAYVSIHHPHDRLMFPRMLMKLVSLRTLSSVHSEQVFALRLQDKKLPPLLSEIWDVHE
# Sequence of LXRa:RXRa (P19793 whole entry, chain 2 of 2): as the sequence (P19793 whole entry, chain 2 of 2) above
# Sequence of THRa:RXRa (P10827 other isoform, or with tags, fused parts or gaps, chain 1 of 2): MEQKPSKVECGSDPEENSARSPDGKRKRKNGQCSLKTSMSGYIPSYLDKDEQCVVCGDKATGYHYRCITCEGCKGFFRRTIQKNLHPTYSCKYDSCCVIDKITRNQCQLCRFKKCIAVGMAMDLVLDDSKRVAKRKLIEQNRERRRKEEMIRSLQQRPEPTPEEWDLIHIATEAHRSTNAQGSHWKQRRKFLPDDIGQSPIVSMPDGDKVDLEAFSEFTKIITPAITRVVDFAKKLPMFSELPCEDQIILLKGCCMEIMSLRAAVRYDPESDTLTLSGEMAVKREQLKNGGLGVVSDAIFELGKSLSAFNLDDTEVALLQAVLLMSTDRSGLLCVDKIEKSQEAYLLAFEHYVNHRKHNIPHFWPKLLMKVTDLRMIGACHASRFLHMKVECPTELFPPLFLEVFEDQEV
# Sequence of THRa:RXRa (P19793 whole entry, chain 2 of 2): as the sequence (P19793 whole entry, chain 2 of 2) above
Binder,binding signal (THRa:RXRa),binding signal (PPARg:RXRa),binding signal (RARa:RXRa),binding signal (PXR:RXRa),binding signal (RARb:RXRa),binding signal (VDR:RXRa),binding signal (RXRa),binding signal (LXRa:RXRa),binding signal (LXRb:RXRa),binding signal (FXR:RXRa),binding signal (PPARa:RXRa),binding signal (RARg:RXRa)
NRC3_wobSeed74_DR3_T9A_o1 (dsDNA) DNA 1: GCTCTAGTAGGTCACGGAGGTCACACACGACGGGTAGCGATTGACAGCGTAGAATGAAGG DNA 2: CCTTCATTCTACGCTGTCAATCGCTACCCGTCGTGTGTGACCTCCGTGACCTACTAGAGC,4.93 PBM z-score against 500 random probes,9.93 PBM z-score against 500 random probes,7.07 PBM z-score against 500 random probes,6.39 PBM z-score against 500 random probes,5.43 PBM z-score against 500 random probes,7.91 PBM z-score against 500 random probes,,,,,,
NRC3_wobSeed99_DR4_A12T_o1 (dsDNA) DNA 1: GCTCTCGGAGGTCACGAAAGGTCAGAGCTCGACATCGCGATTGACAGCGTAGAATGAAGG DNA 2: CCTTCATTCTACGCTGTCAATCGCGATGTCGAGCTCTGACCTTTCGTGACCTCCGAGAGC,5.45 PBM z-score against 500 random probes,,7.86 PBM z-score against 500 random probes,7.53 PBM z-score against 500 random probes,6.17 PBM z-score against 500 random probes,6.9 PBM z-score against 500 random probes,8.83 PBM z-score against 500 random probes,8.32 PBM z-score against 500 random probes,7.35 PBM z-score against 500 random probes,8.33 PBM z-score against 500 random probes,6.75 PBM z-score against 500 random probes,8.59 PBM z-score against 500 random probes
NRC3_wobSeed1_DR0_T8G_o1 (dsDNA) DNA 1: GCCAAACGAGGTCAAGGTCAAAGTCGGTTTGTGCCAGCGATTGACAGCGTAGAATGAAGG DNA 2: CCTTCATTCTACGCTGTCAATCGCTGGCACAAACCGACTTTGACCTTGACCTCGTTTGGC,4.94 PBM z-score against 500 random probes,,7.18 PBM z-score against 500 random probes,6.83 PBM z-score against 500 random probes,5.8 PBM z-score against 500 random probes,6.53 PBM z-score against 500 random probes,8.3 PBM z-score against 500 random probes,6.82 PBM z-score against 500 random probes,6.16 PBM z-score against 500 random probes,8.73 PBM z-score against 500 random probes,6.72 PBM z-score against 500 random probes,7.53 PBM z-score against 500 random probes
NRC3_random_hg19_355_o1 (dsDNA) DNA 1: GCTCACCGTGTTAGCCAGGATGGTCTCAATCTCCTGGCGATTGACAGCGTAGAATGAAGG DNA 2: CCTTCATTCTACGCTGTCAATCGCCAGGAGATTGAGACCATCCTGGCTAACACGGTGAGC,-0.48 PBM z-score against 500 random probes,-0.61 PBM z-score against 500 random probes,-0.62 PBM z-score against 500 random probes,,,,-0.34 PBM z-score against 500 random probes,,,,0.1 PBM z-score against 500 random probes,
NRC3_wobSeed49_DR2_T8A_o1 (dsDNA) DNA 1: GCCAAACAAGGTCAAGAGGTCAAAGTCCGCTTCCCGGCGATTGACAGCGTAGAATGAAGG DNA 2: CCTTCATTCTACGCTGTCAATCGCCGGGAAGCGGACTTTGACCTCTTGACCTTGTTTGGC,4.99 PBM z-score against 500 random probes,,9.05 PBM z-score against 500 random probes,7.38 PBM z-score against 500 random probes,6.31 PBM z-score against 500 random probes,7.22 PBM z-score against 500 random probes,9.65 PBM z-score against 500 random probes,7.44 PBM z-score against 500 random probes,6.73 PBM z-score against 500 random probes,8.52 PBM z-score against 500 random probes,7.02 PBM z-score against 500 random probes,9.11 PBM z-score against 500 random probes
NRC3_wobSeed77_DR3_C8G_o1 (dsDNA) DNA 1: GCACTTAGGGGTCAACGAGGTTATAGCACGCGTATAGCGATTGACAGCGTAGAATGAAGG DNA 2: CCTTCATTCTACGCTGTCAATCGCTATACGCGTGCTATAACCTCGTTGACCCCTAAGTGC,4.82 PBM z-score against 500 random probes,,7.93 PBM z-score against 500 random probes,7.16 PBM z-score against 500 random probes,5.68 PBM z-score against 500 random probes,8.74 PBM z-score against 500 random probes,9.89 PBM z-score against 500 random probes,7.15 PBM z-score against 500 random probes,6.91 PBM z-score against 500 random probes,9.08 PBM z-score against 500 random probes,7.03 PBM z-score against 500 random probes,8.09 PBM z-score against 500 random probes
NRC3_random_hg19_204_o1 (dsDNA) DNA 1: GCGCCTGCATCTCCACATCCATGGAGTCCTGCTGAGGCGATTGACAGCGTAGAATGAAGG DNA 2: CCTTCATTCTACGCTGTCAATCGCCTCAGCAGGACTCCATGGATGTGGAGATGCAGGCGC,-0.86 PBM z-score against 500 random probes,0.07 PBM z-score against 500 random probes,-0.76 PBM z-score against 500 random probes,-0.93 PBM z-score against 500 random probes,,,-0.59 PBM z-score against 500 random probes,,,,,
NRC3_wobSeed29_DR1_T20C_o1 (dsDNA) DNA 1: GCGCTTACGGGTCAAAGGTCATAGCATGAATAGAATGCGATTGACAGCGTAGAATGAAGG DNA 2: CCTTCATTCTACGCTGTCAATCGCATTCTATTCATGCTATGACCTTTGACCCGTAAGCGC,4.82 PBM z-score against 500 random probes,13.1 PBM z-score against 500 random probes,9.33 PBM z-score against 500 random probes,7.5 PBM z-score against 500 random probes,5.71 PBM z-score against 500 random probes,7.18 PBM z-score against 500 random probes,10.8 PBM z-score against 500 random probes,7.26 PBM z-score against 500 random probes,7.5 PBM z-score against 500 random probes,8.57 PBM z-score against 500 random probes,7.49 PBM z-score against 500 random probes,9.01 PBM z-score against 500 random probes
NRC3_wobSeed37_DR1_G22T_o1 (dsDNA) DNA 1: GCCGTCCAAGGTCAAAGGTCATTGAAGAGATGACGGGCGATTGACAGCGTAGAATGAAGG DNA 2: CCTTCATTCTACGCTGTCAATCGCCCGTCATCTCTTCAATGACCTTTGACCTTGGACGGC,5.12 PBM z-score against 500 random probes,12.1 PBM z-score against 500 random probes,9.26 PBM z-score against 500 random probes,7.7 PBM z-score against 500 random probes,,7.41 PBM z-score against 500 random probes,11.1 PBM z-score against 500 random probes,7.79 PBM z-score against 500 random probes,7.46 PBM z-score against 500 random probes,8.93 PBM z-score against 500 random probes,,9.4 PBM z-score against 500 random probes
NRC3_wobSeed121_DR5_T8G_o1 (dsDNA) DNA 1: GCCAAACGAGGTCACCGGAAGGTCAAAGTCCGCATGGCGATTGACAGCGTAGAATGAAGG DNA 2: CCTTCATTCTACGCTGTCAATCGCCATGCGGACTTTGACCTTCCGGTGACCTCGTTTGGC,5.39 PBM z-score against 500 random probes,,8.77 PBM z-score against 500 random probes,7.41 PBM z-score against 500 random probes,6.23 PBM z-score against 500 random probes,7.56 PBM z-score against 500 random probes,9.51 PBM z-score against 500 random probes,7.39 PBM z-score against 500 random probes,7.15 PBM z-score against 500 random probes,8.64 PBM z-score against 500 random probes,7.14 PBM z-score against 500 random probes,9.6 PBM z-score against 500 random probes
NRC3_random_hg19_478_o1 (dsDNA) DNA 1: GCATCAGCCATTTGGTATGCAAGTAGATTAGAAGCCGCGATTGACAGCGTAGAATGAAGG DNA 2: CCTTCATTCTACGCTGTCAATCGCGGCTTCTAATCTACTTGCATACCAAATGGCTGATGC,-0.66 PBM z-score against 500 random probes,0.2 PBM z-score against 500 random probes,-0.34 PBM z-score against 500 random probes,,,,,-0.84 PBM z-score against 500 random probes,,,-0.63 PBM z-score against 500 random probes,
NRC3_random_hg19_67_o1 (dsDNA) DNA 1: GCCTGGCTGGGCATGGTGGCTCATGCCTGTAATCCCGCGATTGACAGCGTAGAATGAAGG DNA 2: CCTTCATTCTACGCTGTCAATCGCGGGATTACAGGCATGAGCCACCATGCCCAGCCAGGC,-0.95 PBM z-score against 500 random probes,-1.37 PBM z-score against 500 random probes,-0.94 PBM z-score against 500 random probes,,,,,,,,,
NRC3_wobSeed109_DR4_C7A_o1 (dsDNA) DNA 1: GCCGTCAAAGGTCATAGGAGGTCAGTGAAGACAGATGCGATTGACAGCGTAGAATGAAGG DNA 2: CCTTCATTCTACGCTGTCAATCGCATCTGTCTTCACTGACCTCCTATGACCTTTGACGGC,5.57 PBM z-score against 500 random probes,,7.3 PBM z-score against 500 random probes,7.51 PBM z-score against 500 random probes,6.2 PBM z-score against 500 random probes,7.29 PBM z-score against 500 random probes,8.51 PBM z-score against 500 random probes,8.48 PBM z-score against 500 random probes,7.17 PBM z-score against 500 random probes,8.92 PBM z-score against 500 random probes,7.01 PBM z-score against 500 random probes,8.29 PBM z-score against 500 random probes
